Data on 1 substance can be found in PMC7549315.

For one experiment, the target named is SAF-A^RGG1-7Δ–GFP (UniProt Q00839). Put plainly: co-IP.
Another experiment has as its target SAF-A^CtermΔ–GFP. Briefly: co-IP.

SAF-A^RGG1-7Δ–GFP, sequence (Q00839 whole entry, stated change not applied): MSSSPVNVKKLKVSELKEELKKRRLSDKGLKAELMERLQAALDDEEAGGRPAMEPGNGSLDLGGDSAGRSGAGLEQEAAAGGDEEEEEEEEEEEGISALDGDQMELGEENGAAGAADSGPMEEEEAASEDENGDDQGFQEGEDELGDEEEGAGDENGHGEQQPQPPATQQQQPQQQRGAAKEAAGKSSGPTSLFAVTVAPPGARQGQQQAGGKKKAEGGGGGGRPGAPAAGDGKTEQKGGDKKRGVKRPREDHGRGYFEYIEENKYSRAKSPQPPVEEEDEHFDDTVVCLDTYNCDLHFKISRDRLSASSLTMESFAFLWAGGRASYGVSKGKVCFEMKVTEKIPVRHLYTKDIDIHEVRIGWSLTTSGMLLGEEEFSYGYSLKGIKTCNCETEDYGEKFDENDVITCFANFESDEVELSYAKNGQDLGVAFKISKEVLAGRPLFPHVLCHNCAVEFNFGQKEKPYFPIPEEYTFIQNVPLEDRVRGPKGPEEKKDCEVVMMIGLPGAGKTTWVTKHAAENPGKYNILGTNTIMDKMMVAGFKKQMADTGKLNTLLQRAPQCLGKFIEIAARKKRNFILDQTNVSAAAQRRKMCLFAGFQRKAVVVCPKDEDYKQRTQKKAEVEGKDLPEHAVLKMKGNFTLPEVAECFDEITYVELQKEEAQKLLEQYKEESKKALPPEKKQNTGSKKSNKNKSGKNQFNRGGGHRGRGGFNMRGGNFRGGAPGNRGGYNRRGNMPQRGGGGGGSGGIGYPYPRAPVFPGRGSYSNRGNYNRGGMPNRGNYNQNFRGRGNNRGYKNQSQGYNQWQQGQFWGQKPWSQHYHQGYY
SAF-A^CtermΔ–GFP, sequence (Q00839 2-825, stated change not applied): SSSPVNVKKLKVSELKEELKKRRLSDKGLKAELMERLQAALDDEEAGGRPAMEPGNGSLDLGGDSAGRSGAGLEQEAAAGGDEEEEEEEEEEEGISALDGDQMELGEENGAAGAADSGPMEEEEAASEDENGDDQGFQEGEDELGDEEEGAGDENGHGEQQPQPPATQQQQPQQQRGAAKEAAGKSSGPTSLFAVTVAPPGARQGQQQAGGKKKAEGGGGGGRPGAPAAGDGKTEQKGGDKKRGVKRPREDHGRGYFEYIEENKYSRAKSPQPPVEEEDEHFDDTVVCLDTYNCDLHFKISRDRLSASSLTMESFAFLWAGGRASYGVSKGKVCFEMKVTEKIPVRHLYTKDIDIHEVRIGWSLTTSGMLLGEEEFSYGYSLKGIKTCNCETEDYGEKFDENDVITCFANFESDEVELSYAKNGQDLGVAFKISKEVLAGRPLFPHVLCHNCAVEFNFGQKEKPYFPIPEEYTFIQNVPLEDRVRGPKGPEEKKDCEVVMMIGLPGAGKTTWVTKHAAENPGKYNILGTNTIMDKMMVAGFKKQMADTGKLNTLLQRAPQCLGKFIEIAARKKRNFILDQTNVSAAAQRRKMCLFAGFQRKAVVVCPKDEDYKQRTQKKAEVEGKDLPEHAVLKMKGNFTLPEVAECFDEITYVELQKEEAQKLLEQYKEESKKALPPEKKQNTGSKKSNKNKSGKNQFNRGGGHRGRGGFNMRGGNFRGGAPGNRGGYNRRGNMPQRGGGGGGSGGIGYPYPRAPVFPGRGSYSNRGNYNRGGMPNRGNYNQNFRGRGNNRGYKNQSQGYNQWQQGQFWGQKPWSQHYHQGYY

With “histone H3 (from UniProt P68431 1-136) (natural protein)”, the fold reduction in histone H3 interaction relative to SAF-A^wt–GFP in the experiment with SAF-A^RGG1-7Δ–GFP and in the experiment with SAF-A^CtermΔ–GFP was more than 7 fold throughout.
